According to EP3854411A1 (Rise Biopharmaceuticals, Inc. (Beijing), dated 2021):

Tests used:
[1] = target: T1, CXCR2 (UniProt P25025 1-360, limits assumed); experiment: indirect ELISA, ONCO P8-CXCR2 complex formation
T1 construct: The receptor preparation used in the ELISA is not described; also called IL-8R
T1 sequence (looked up): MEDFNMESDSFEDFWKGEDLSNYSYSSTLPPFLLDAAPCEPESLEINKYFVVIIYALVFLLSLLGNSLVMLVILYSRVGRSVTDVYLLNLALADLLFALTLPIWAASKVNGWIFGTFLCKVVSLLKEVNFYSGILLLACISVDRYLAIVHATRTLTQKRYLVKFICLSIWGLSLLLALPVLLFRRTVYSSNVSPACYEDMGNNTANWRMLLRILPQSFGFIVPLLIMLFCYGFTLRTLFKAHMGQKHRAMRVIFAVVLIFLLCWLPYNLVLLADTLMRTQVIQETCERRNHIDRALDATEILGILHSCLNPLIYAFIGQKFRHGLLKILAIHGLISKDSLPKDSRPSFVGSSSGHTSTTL

[2] = target: T2, CXCR1 (UniProt P25024 1-350, limits assumed); experiment: indirect ELISA, ONCO P8-CXCR1 complex formation
T2 construct: The receptor preparation used in the ELISA is not described; also called IL-8R
T2 sequence (looked up): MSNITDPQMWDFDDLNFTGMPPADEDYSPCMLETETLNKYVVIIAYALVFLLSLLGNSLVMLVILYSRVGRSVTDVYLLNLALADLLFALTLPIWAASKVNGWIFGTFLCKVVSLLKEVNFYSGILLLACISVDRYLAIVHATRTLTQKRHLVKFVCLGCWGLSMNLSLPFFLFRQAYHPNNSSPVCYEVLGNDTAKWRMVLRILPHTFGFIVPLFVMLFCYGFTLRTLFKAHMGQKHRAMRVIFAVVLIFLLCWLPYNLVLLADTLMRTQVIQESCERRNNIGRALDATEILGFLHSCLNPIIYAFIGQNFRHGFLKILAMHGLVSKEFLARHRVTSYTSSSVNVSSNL

B1: ONCO P-8 (peptide)
chain: GSKELRCQCIRSYSKPFHPKFIKELRVIPASQFCANTEIIVKLSDGRELCLDPKENWVQRVVEKFLKRAENS
notes: also called chemokine receptor antagonistic modified peptide
- Kd [1]: 139 nM
- Kd [2]: 286 nM
